Here are results for 10 molecules from PMC6386705.

In data set [1] the target is T1, HuR RRM3 (human, UniProt Q15717 241-326). Kind of data set: ITC. Background: ITC needs no label: the signal is the heat of the interaction.
In data set [2] the target is T1, HuR RRM3. Kind of data set: ITC. This is another data set of the same source.
In data set [3] the target is T1, HuR RRM3. Kind of data set: ITC. This is another data set of the same source.
Data set [4] addresses T2, HuR RRM3 W261E (human, UniProt Q15717 241-326, W261E). Kind of data set: ITC.
In data set [5] the target is T1, HuR RRM3. Nature of the data set: ITC. The source holds these as a separate data set.
Data set [6] deals with T1, HuR RRM3. Nature of the data set: NMR.
The target of the next data set is HuR RRM12 (human, UniProt Q15717 2-189). Kind of data set: ITC.
Chain of HuR RRM12 (Q15717 2-189): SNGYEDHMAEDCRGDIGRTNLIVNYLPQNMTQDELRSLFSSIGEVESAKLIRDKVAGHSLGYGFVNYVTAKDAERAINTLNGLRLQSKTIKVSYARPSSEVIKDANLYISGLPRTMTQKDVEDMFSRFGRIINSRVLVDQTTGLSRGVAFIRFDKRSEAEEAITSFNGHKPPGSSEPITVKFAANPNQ
The target in the next data set is HuR RRM3 FY (human, UniProt Q15717 241-326, F247A;Y249A). Nature of the data set: NMR.
Chain of HuR RRM3 FY (Q15717 241-326 F247A/Y249A): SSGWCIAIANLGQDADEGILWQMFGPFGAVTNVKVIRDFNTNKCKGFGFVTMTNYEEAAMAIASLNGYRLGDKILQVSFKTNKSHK
Data set [7] concerns the target T1, HuR RRM3. Kind of data set: ITC. The source holds these as a separate data set.
Data set [8] has as its target T2, HuR RRM3 W261E. Kind of data set: NMR.
Data set [9] deals with T1, HuR RRM3. Kind of data set: NMR. The source holds these as a separate data set.
Data set [10] has as its target T1, HuR RRM3. Nature of the data set: NMR. The source holds these as a separate data set.

Read-outs that look alike come from different tables or passages of the source.

T1 sequence (Q15717 241-326): as the sequence (Q15717 241-326 F247A/Y249A) above, with A7F, A9Y counted along it
T2 sequence (Q15717 241-326 W261E): as the sequence (Q15717 241-326 F247A/Y249A) above, with A7F, A9Y, W21E counted along it

B1: AUUUUU (ssRNA)
RNA: AUUUUU
A word on the Kd: it is the constant that tells how readily two partners part at equilibrium. Turning to B1, in the data set with HuR RRM3 [1], binding was put at a Kd of 4.03 ± 0.25 µM.

B2: UUUAUU (ssRNA)
RNA: UUUAUU
In turn, B2 yielded a Kd in the data set with HuR RRM3 [2] of 5.6 ± 0.4 µM.

B3: AUUAUU (ssRNA)
RNA: AUUAUU
B3: the affinity with HuR RRM3 [3], expressed as Kd, was 5.75 ± 0.27 µM.

B4: UUUUUU (ssRNA)
RNA: UUUUUU
With B4, the binding result in the data set with HuR RRM3 W261E [4] is “binds”. Also, the Kd in the data set with HuR RRM3 [5] is 3.58 ± 0.21 µM.

B5: AUUAU (ssRNA)
RNA: AUUAU
For the molecule B5, the binding result with HuR RRM3 [6] is recorded as “binds”.

B6: c-fos ARE 11-mer (ssRNA)
RNA: AUUUUUAUUUU
For the molecule B6, the Kd was determined as 0.14 µM in the data set with HuR RRM12 and 0.65 µM with HuR RRM3 [7]. Also, the binding result is listed as “no binding” with HuR RRM3 FY and “binds” in the data set with HuR RRM3 W261E [8].

B7: UUAUU (ssRNA)
RNA: UUAUU
With B7, the binding result in the data set with HuR RRM3 [9] is recorded as “binds”.

B8: UUUUA (ssRNA)
RNA: UUUUA
Turning to B8, in the data set with HuR RRM3 [9], the binding result is “binds”.

B9: UUUUU (ssRNA)
RNA: UUUUU
On to B9, for which the binding result in the data set with HuR RRM3 [10] is recorded as “binds”.

B10: AUUUU (ssRNA)
RNA: AUUUU
As to B10, the binding result with HuR RRM3 [9] is on record as “binds”.
